Patent US5837813, “Fibronectin Type III polypeptides” (La Jolla Cancer Research Foundation, dated 1998)

Legend:
human fibronectin [1] = biological target: T1, human fibronectin (human, UniProt P02751); experiment: solid-phase competition, 125I-14 kDa fragment on coated fibronectin
human fibronectin [2] = biological target: T1, human fibronectin; experiment: solid-phase competition, 125I-fibronectin on coated fibronectin

IC50 (human fibronectin [1]): 1000 nM | IC50 (human fibronectin [2]): ~1000 nM
Binder: NAPQPSHISKYILRWRPKNSVGRWKEATIPG [polypeptide P1]
